From the supplement of paper PMC9170038

System: MS2 coat protein
Test: apparent KD of MS2 coat protein; designed switch direction (-1 OFF switch, 1 ON switch): -1; higher = weaker reporter binding
Procedure, shortened: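 Three titration conditions were used: no input, 200 uM small-molecule ligand, and an oligonucleotide input. In each, SNAP-549-labelled MS2 coat protein was raised from 0.7 or 1.5 nM, doubling, to 3 µM over designed RNA switches transcribed on Illumina chips by stalled E. coli RNA polymerase. Curve fits of normalised cluster fluorescence gave values whose per-design median over clusters is the apparent KD.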

[1] = input ligand: microRNA oligo, concentration not stated
[2] = Eterna round: R95, input ligand: microRNA oligo, concentration not stated
[3] = Eterna round: R95, input ligand: FMN 200 uM
[4] = Eterna round: R95, input ligand: none

## UUCUACAAGCUGAGAUCCUACAUGAGGAUCACCCAUGUGGUCCGGAACAUUCUGUCACCGGAUCUUGCUCGUCUUGU [salish99_S_TOV1_R5_104] (Eterna round: R97, puzzle: Sensor, turn-off variant 1)
Input ligand: FMN 200 uM
  apparent KD of MS2 coat protein: 41.9 nM
Input ligand: none
  apparent KD of MS2 coat protein: 48.4 nM

## UUCUGGACAGGAUAUGUACUUGAGCACUUGAGGAUCACCCAAGUCCUCAAGUACUCAGGCACAGAAGGGUUAAUUU [jl-ex5.4.65 ViennaUCT mod] (Eterna round: R97, puzzle: Exclusion 5)
Input ligand: FMN 200 uM
  apparent KD of MS2 coat protein: 110 nM
Input ligand: none
  apparent KD of MS2 coat protein: 71.9 nM

## UUGAAGUCGUCAGGAUAUAGAUUUAAUGUCAUGCGUAUGUUCUUACAUGAGGAUCACCCAUGUCGCUAGAAGGGACUAUAGAUU [JR_ExcNG2_Sub008] (Eterna round: R96, puzzle: Exclusion NG 2)
Input ligand: FMN 200 uM
  apparent KD of MS2 coat protein: 54.6 nM
[1]
  apparent KD of MS2 coat protein: 35.1 nM
Input ligand: none
  apparent KD of MS2 coat protein: 45.1 nM

## UUGAAUUAGCAGGAUAUGGGAGUCGAUAGACACCCAGAAGGGCUAACAUGAGGAUCACCCAUGUGUCCUAUCAA [Mod of Eli 22 - Jieux - Exclusion 6] (Eterna round: R97, puzzle: Exclusion 6)
Input ligand: FMN 200 uM
  apparent KD of MS2 coat protein: 204 nM
Input ligand: none
  apparent KD of MS2 coat protein: 33.9 nM

## UUGAUACAUGAGGAUCACCCAUGUUAGGAUAUACGCAUGCAUGCAUGCAUGCAUGCAAGUAGAAGGAACCAUGC [Design #1] (Eterna round: R97, puzzle: Exclusion 1)
Input ligand: FMN 200 uM
  apparent KD of MS2 coat protein: 30.7 nM
Input ligand: none
  apparent KD of MS2 coat protein: 42 nM

## UUGAUGUCAUCAGGAUAUAGUAUUUAAGACAUAUCUUCUUUCUUACAUGAGGAUCACCCAUGUCGCUAGAAGGGAUGAAUGAUU [JR_ExcNG2_Sub086] (Eterna round: R96, puzzle: Exclusion NG 2)
[1]
  apparent KD of MS2 coat protein: 13.4 nM

## UUGCAGUCAUCAGGAUAUAGUAUUACGGCCAUUUAUAUUUUCAUACAUGAGGAUCACCCAUGUCGCUAGAAGGGAUUAUCGAUU [Exclusion NG 2] (Eterna round: R96, puzzle: Exclusion NG 2)
[1]
  apparent KD of MS2 coat protein: 34.5 nM

## UUGCAGUCGUCAGGAUAUAGUAUUACGGCCUUUCAUUUCUUCAUACAUGAGGAUCACCCAUGUCGCUAGAAGGGAUUAUCGAUU [salish99_ExNG2_r04_106] (Eterna round: R96, puzzle: Exclusion NG 2)
Input ligand: FMN 200 uM
  apparent KD of MS2 coat protein: 16 nM
[1]
  apparent KD of MS2 coat protein: 17.1 nM
Input ligand: none
  apparent KD of MS2 coat protein: 23 nM

## UUGGAUGUUGAGGAUAUGCUGGUGUUUAUUAUAGCAGAAGGCGAUACAUGAGGAUCACCCAUGUUCAUGGCUUU [JR_E6_Sub100] (puzzle: Exclusion 6)
[2]
  apparent KD of MS2 coat protein: 12.4 nM

## UUGGUUGUGGUAGGAUAUCCGUUGGAAACCUUCGGAGAAGGACCACAGUCACUGGGUCUUUGUCUGGUGGACGGUUUCGACCGU [pwkr exNG1 F6.23] (Eterna round: R96, puzzle: Exclusion NG 1)
Input ligand: FMN 200 uM
  apparent KD of MS2 coat protein: 202 nM
[1]
  apparent KD of MS2 coat protein: 281 nM
Input ligand: none
  apparent KD of MS2 coat protein: 559 nM

## UUGUAGUGAGGAUAUAUAUAGUGGUUUUAUUAAUUUUUAUUACUUGAGGAUCACCCAAGUAGAAGGCGCAAAGU [JR_Ex2_Sub071] (Eterna round: R97, puzzle: Exclusion 2)
Input ligand: FMN 200 uM
  apparent KD of MS2 coat protein: 19.2 nM
Input ligand: none
  apparent KD of MS2 coat protein: 18.3 nM

## UUGUAUAUAGGAUAUGUAAGAAGAAACAUGAGGAUCACCCAUGUAGCCUCAAAUUUUAUGACAGAAGGAUAUGUUA [Default title] (Eterna round: R97, puzzle: Exclusion 5)
Input ligand: FMN 200 uM
  apparent KD of MS2 coat protein: 36.2 nM
Input ligand: none
  apparent KD of MS2 coat protein: 56 nM

## UUGUUACAUGAGGAUCACCCAUGUGAGGAUAUGGUUAAGUAAUGUAAUGUAAAGUAAUCCAGAAGGCACAUGUU [1st #25] (Eterna round: R97, puzzle: Exclusion 1)
Input ligand: FMN 200 uM
  apparent KD of MS2 coat protein: 353 nM
Input ligand: none
  apparent KD of MS2 coat protein: 196 nM

## UUGUUAUAUGUAGGAUAUGCAUAUUAUUAUUAUGCAGAAGGACAUGAGGAUCACCCAUGUAUAUUGUUGUUAUAUAUUAUAUAU [Title] (Eterna round: R96, puzzle: Exclusion NG 1)
[1]
  apparent KD of MS2 coat protein: 18.2 nM

## UUGUUCCGUGUAGGAUAUUGGUCUCCCUCGGGCCGAGAAGGACAUGAGGAUCACCCAUGUAUGCUAUUAUCGCGCGUGGCGCAC [Design 93] (Eterna round: R96, puzzle: Exclusion NG 1)
Input ligand: FMN 200 uM
  apparent KD of MS2 coat protein: 138 nM
[1]
  apparent KD of MS2 coat protein: 34.1 nM
Input ligand: none
  apparent KD of MS2 coat protein: 47.3 nM

## UUGUUGUAUGUAGGAUAUGCAUAUUGUUAUUAUGCAGAAGGACAUGAGGAUCACCCAUGUAUAUUACUAUUAUGUACUAUAUAU [MOD of Hoglahoo's a different Title] (Eterna round: R96, puzzle: Exclusion NG 1)
Input ligand: FMN 200 uM
  apparent KD of MS2 coat protein: 106 nM
[1]
  apparent KD of MS2 coat protein: 25.5 nM
Input ligand: none
  apparent KD of MS2 coat protein: 32.6 nM

## UUGUUGUGUGUAGGAUAUGCAUGUUAUUAUUAUGCAGAAGGACAUGAGGAUCACCCAUGUGUAUUAUUAUUAUAUAUUAUAUAU [Title] (Eterna round: R96, puzzle: Exclusion NG 1)
Input ligand: FMN 200 uM
  apparent KD of MS2 coat protein: 21.1 nM
[1]
  apparent KD of MS2 coat protein: 13.8 nM
Input ligand: none
  apparent KD of MS2 coat protein: 22.5 nM

## UUUAAGUCAGGAUAUACAUGAGGAUCACCCAUGUAAAAUUUUAAUUUAAUUUGAAGGUGUAGAAGGGACAAAUU [Ex3 #37] (Eterna round: R97, puzzle: Exclusion 3)
Input ligand: FMN 200 uM
  apparent KD of MS2 coat protein: 23 nM
Input ligand: none
  apparent KD of MS2 coat protein: 24.6 nM

## UUUAAUUUUUUUUUUUUACAAGCUUUUUGCUCGUCUUAUACAUGAGGAUCACCCAUGUAAGUGGGAGAUAAAUUAUC [JMF 21] (puzzle: Sensor v3, turn-off variant 2)
[3]
  apparent KD of MS2 coat protein: 76.6 nM
[2]
  apparent KD of MS2 coat protein: 53.3 nM
[4]
  apparent KD of MS2 coat protein: 90.4 nM

## UUUAAUUUUUUUUUUUUACAAGCUUUUUGCUCGUCUUAUACAUGAGGAUCACCCAUGUAGGUGAAAAGUAAAUUAUC [JMF 45] (puzzle: Sensor v3, turn-off variant 2)
[3]
  apparent KD of MS2 coat protein: 15.8 nM
[2]
  apparent KD of MS2 coat protein: 82.1 nM
[4]
  apparent KD of MS2 coat protein: 20.8 nM

## UUUAAUUUUUUUUUUUUACAAGCUUUUUGCUCGUCUUAUACAUGAGGAUCACCCAUGUAGGUGAAAGGUAAAUUAUC [JMF 65] (puzzle: Sensor v3, turn-off variant 2)
[3]
  apparent KD of MS2 coat protein: 32 nM
[2]
  apparent KD of MS2 coat protein: 117 nM
[4]
  apparent KD of MS2 coat protein: 30.9 nM

## UUUAAUUUUUUUUUUUUACAAGCUUUUUGCUCGUCUUAUACAUGAGGAUCACCCAUGUGAAUGGAAGGUAAAUUAUC [JMF 68] (puzzle: Sensor v3, turn-off variant 2)
[3]
  apparent KD of MS2 coat protein: 17.3 nM
[2]
  apparent KD of MS2 coat protein: 18.4 nM
[4]
  apparent KD of MS2 coat protein: 20.4 nM

## UUUAAUUUUUUUUUUUUACAAGCUUUUUGCUCGUCUUAUACAUGAGGAUCACCCAUGUGAGUGGAGGGUAAAUUAUC [JMF 88] (puzzle: Sensor v3, turn-off variant 2)
[3]
  apparent KD of MS2 coat protein: 17.8 nM
[2]
  apparent KD of MS2 coat protein: 45.8 nM
[4]
  apparent KD of MS2 coat protein: 16.3 nM
